Measured values from article PMC10433817.

Test system: ThserRS (seryl-tRNA synthetase, GME12055) (Trametes hirsuta AH28-2)
Assay: fluorescence polarization
Details: 5 mM Mg2+; 25 mM HEPES pH 6.5, 5 mM MgCl2, 150 mM KCl, 1 mM DTT, 5% glycerol, 16 C, 30 min; probe 0.5 uM (EMSA) or 40 nM (FP); further truncations of the 32-bp probe gave …

lacA promoter 32-bp minimal probe (-462 to -431)
Kd: 920 nM
